Laboratory results as given in article PMC2528183.

T1: ttRecF (Thermus thermophilus, UniProt Q5SLM9 1-343)
T1 sequence: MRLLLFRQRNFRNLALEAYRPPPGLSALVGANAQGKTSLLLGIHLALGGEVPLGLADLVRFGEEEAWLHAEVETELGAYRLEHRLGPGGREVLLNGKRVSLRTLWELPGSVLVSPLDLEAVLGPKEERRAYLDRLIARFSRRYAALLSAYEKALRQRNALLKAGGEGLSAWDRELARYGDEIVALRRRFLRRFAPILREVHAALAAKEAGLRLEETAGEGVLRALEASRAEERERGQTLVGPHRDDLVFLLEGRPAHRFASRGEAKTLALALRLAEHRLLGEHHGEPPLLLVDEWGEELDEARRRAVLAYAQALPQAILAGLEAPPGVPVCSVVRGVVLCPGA

T2: ttRecF;ttRecR (Thermus thermophilus;Thermus …, UniProt Q5SLM9;Q5SHY0 1-343;1-194, |)
T2 sequence 1: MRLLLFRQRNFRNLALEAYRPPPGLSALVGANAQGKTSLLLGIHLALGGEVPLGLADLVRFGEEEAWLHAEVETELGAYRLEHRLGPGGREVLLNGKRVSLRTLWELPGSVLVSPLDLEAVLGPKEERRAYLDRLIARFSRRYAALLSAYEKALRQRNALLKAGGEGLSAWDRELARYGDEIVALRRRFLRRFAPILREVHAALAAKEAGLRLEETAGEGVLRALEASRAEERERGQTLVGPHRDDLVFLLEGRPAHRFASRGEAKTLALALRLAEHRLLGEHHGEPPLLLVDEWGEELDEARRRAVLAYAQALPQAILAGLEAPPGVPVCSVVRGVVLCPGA
T2 sequence 2: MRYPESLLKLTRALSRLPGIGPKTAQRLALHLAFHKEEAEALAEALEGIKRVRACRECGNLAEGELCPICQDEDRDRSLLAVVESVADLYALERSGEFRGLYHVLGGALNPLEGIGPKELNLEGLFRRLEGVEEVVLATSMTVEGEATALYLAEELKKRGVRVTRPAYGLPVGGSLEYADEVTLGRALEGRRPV

T3: ttRecR (Thermus thermophilus, UniProt Q5SHY0 1-194)
T3 sequence: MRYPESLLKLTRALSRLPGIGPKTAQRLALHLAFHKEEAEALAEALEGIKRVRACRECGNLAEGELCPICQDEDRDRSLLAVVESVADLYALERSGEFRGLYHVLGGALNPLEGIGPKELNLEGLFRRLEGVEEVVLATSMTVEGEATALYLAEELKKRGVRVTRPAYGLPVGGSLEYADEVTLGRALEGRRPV


Columns and labels:
[1] = biological target: Thermus thermophilus RecR (ttRecR), wild type (Thermus thermophilus); assay: SAXS
[2] = biological target: Thermus thermophilus RecF (ttRecF) (Thermus thermophilus); assay: SAXS
[3] = biological target: Thermus thermophilus RecR (ttRecR), wild type (Thermus thermophilus); assay: SAXS; remark: listed apart in the source
[4] = biological target: Thermus thermophilus RecR (ttRecR), wild type (Thermus thermophilus); assay: SEC
ttRecF = biological target: T1, ttRecF; assay: EMSA
ttRecF;ttRecR = biological target: T2, ttRecF;ttRecR; assay: EMSA
ttRecR = biological target: T3, ttRecR; assay: EMSA

stoichiometry N [1]	N, ttRecF chains in the complex [2]	N, ttRecR chains in the complex [2]	stoichiometry N [3]	stoichiometry N [4]	Molecule	binding result (ttRecF)	binding result (ttRecF;ttRecR)	binding result (ttRecR)
2	2	4	4	2	Thermus thermophilus RecR (ttRecR), wild type (natural protein)	–	–	–
–	–	–	–	–	70 bp dsDNA (dsDNA) DNA 1: GCGATCCTTATTAAAACGGCAACTCCTCCTCCGGCGGAAAGTCTTCCAAGCCTTCGTCAATGTCCACCCC DNA 2: GGGGTGGACATTGACGAAGGCTTGGAAGACTTTCCGCCGGAGGAGGAGTTGCCGTTTTAATAAGGATCGC	binds	binds	no binding
